Source: US20110257092A1 (INDIANA UNIVERSITY RESEARCH AND TECHNOLOGY, published 2011)
Ends that are not written are not given here.

Target: glucagon receptor (UniProt P47871 26-477, limits assumed)
Assay: cell-based or functional assay

glucagon receptor, sequence (P47871 26-477 limits assumed): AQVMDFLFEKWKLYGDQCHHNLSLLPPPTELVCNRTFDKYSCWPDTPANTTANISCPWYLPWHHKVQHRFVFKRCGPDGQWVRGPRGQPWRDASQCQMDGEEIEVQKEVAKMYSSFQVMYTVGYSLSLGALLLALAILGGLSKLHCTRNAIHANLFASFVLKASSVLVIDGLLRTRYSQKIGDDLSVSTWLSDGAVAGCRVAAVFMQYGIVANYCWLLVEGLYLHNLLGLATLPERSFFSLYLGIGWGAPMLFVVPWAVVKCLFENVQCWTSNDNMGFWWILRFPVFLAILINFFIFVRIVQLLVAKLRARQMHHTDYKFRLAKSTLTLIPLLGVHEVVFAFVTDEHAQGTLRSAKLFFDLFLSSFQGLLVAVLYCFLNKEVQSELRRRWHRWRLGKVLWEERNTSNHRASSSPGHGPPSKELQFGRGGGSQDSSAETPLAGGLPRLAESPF

glucagon agonism: > 10 fold reduction
Binder: HSEGTFTSDYSKYLDEQAAKEFIC(PEG 20 kDa)WLMNT (not fully specified (C-terminus)) [Peptide V]
